Molecular target: Native MsrA/B on the surface of N. gonorrhoeae 1291 cells (N. gonorrhoeae strain 1291) (UniProt P14930)
Assay: whole cell ELISA, N. gonorrhoeae 1291 strains

Sequence of Native MsrA/B on the surface of N. gonorrhoeae 1291 cells (N. gonorrhoeae strain 1291) (P14930 1-519, tags or fused parts left off): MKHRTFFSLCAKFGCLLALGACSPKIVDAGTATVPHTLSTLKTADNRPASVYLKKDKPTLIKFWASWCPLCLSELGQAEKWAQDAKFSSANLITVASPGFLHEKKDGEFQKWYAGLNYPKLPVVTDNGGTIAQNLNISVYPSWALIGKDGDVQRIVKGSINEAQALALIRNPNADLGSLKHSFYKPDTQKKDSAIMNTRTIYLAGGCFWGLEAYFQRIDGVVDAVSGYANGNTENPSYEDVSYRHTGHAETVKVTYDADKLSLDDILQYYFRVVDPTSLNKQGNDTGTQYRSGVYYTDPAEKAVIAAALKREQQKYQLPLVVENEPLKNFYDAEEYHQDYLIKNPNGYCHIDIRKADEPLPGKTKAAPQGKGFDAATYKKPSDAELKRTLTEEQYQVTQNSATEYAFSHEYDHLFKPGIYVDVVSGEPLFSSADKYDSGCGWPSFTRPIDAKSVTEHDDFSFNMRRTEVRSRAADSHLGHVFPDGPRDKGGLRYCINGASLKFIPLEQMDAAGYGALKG

## Pre-immune mouse sera (antibody)
  ELISA titre vs whole cells: < 200 titre
